Series [1] concerns the target T1, SpPot1-DBD (Schizosaccharomyces pombe, UniProt O13988 1-389).
T1 sequence: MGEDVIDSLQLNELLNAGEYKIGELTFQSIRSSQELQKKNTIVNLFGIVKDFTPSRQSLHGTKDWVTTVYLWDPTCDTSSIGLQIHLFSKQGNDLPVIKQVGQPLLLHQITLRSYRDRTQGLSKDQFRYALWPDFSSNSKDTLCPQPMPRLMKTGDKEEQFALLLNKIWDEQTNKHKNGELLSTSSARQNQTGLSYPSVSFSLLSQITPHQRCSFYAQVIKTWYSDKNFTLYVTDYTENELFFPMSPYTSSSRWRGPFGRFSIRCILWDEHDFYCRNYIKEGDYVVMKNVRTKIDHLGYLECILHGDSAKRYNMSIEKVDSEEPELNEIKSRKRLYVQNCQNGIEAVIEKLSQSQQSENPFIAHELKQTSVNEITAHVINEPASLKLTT
Nature of the series: EMSA.

Series [2] addresses T2, SpPot1 (Schizosaccharomyces pombe, UniProt O13988 1-555).
T2 sequence: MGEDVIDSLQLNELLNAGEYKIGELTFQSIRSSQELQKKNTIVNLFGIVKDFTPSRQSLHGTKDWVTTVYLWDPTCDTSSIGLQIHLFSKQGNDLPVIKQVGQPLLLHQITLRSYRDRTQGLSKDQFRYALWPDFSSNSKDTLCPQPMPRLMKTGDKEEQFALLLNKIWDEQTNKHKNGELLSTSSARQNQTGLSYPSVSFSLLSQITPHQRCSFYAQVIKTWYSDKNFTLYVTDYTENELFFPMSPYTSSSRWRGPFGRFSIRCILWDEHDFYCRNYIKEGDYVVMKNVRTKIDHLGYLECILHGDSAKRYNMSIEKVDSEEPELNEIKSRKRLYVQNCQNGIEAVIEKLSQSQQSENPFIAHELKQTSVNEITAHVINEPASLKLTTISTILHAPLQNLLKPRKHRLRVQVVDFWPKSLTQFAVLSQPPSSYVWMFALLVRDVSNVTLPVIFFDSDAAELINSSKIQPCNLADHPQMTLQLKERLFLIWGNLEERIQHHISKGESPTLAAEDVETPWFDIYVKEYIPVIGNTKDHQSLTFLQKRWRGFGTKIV

In series [3] the target is T1, SpPot1-DBD. Nature of the series: EMSA. This is another data set of the same source.
The target in series [4] is T1, SpPot1-DBD. The series can be described thus: EMSA. This is another data set of the same source.
Series [5] addresses T1, SpPot1-DBD. Nature of the series: EMSA. The source holds these as a separate data set.
Series [6] addresses T1, SpPot1-DBD. Nature of the series: EMSA. The source holds these as a separate data set.
The target in series [7] is T1, SpPot1-DBD. The series can be described thus: EMSA. The source holds these as a separate data set.
The next series has as its target T3, Cdc13 (Saccharomyces cerevisiae, UniProt P32797 1-924).
T3 sequence: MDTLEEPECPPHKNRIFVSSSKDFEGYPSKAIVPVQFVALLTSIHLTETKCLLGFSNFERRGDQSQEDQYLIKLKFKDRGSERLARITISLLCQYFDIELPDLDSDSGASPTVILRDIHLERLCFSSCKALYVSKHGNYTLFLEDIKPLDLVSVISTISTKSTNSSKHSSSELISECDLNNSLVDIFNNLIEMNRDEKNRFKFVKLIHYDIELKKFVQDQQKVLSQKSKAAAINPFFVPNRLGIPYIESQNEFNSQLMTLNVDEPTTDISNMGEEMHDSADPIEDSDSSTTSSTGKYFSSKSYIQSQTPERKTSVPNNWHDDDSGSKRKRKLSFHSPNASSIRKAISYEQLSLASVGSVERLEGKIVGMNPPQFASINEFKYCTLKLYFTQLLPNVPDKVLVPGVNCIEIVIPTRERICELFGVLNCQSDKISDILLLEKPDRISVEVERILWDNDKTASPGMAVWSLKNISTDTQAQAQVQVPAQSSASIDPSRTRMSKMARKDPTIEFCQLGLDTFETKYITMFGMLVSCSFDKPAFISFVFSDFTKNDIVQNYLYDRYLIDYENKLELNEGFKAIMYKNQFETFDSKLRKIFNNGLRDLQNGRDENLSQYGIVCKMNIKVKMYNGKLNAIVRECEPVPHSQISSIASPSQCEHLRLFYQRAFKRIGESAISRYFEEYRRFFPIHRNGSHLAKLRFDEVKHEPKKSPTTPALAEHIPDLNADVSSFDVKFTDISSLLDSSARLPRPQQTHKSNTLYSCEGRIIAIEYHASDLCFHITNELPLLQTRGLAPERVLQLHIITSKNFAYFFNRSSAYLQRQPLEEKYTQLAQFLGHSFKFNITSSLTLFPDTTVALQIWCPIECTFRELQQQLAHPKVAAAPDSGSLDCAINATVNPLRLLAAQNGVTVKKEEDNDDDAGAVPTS
The series can be described thus: EMSA.

In series [8] the target is T1, SpPot1-DBD. The series can be described thus: EMSA. The source holds these as a separate data set.
Series [9] addresses T2, SpPot1. Nature of the series: filter binding.
In series [10] the target is T2, SpPot1. The series can be described thus: filter binding. This is another data set of the same source.
Series [11] concerns the target T2, SpPot1. Nature of the series: filter binding. The source holds these as a separate data set.
For series [12], the target named is T2, SpPot1. The series can be described thus: filter binding. The source holds these as a separate data set.
The series “native gel or EMSA” deals with the molecule itself. The series can be described thus: native gel or EMSA.

Like-named read-outs stand apart in the source and are kept apart here.

The text below walks through data of paper PMC4155600 (Journal of nucleic acids investigation, 2013).

As to GGTTACGGTTACGGT (ssDNA) [15mer], the Kd with SpPot1-DBD [1] came to 4.2 pM; with SpPot1 [2], 5.2 ± 0.5 pM; in the series with SpPot1-DBD [3], 1.6 pM; with SpPot1-DBD [4], 10.3 pM; with SpPot1-DBD [5], 5 pM; in the series with SpPot1-DBD [6] it was 1.5 pM. The same molecule displayed a Kd in the series with SpPot1-DBD [7] of 4.9 ± 0.8 pM.

Regarding GTGTGGGTGTG (ssDNA) [Tel11], in the series with Cdc13, the Kd was 13.4 ± 0.8 pM.

As to GGTTA (ssDNA) [d(GGTTA) 5mer], the Kd with SpPot1-DBD [8] was around 10000 pM.

In the case of GGTTACGGTTAC (ssDNA) [12mer], the Kd with SpPot1 [2] turned out to be 6.7 ± 0.9 pM; with SpPot1 [9], 14 pM; with SpPot1 [10] it was 100 pM; in the series with SpPot1 [11] it was 700 pM; with SpPot1 [12] it was 130 pM.

B1: Saccharomyces cerevisiae Cdc13 (1–924), full-length protein (natural protein, UniProt P32797 1-924, looked up)
chain: T3 sequence
With B1, in “native gel or EMSA”, the “stoichiometry N” value amounted to 2.
